# Biological target: ARHGAP24, Q8N264-1
# Sequence (Q8N264 whole entry): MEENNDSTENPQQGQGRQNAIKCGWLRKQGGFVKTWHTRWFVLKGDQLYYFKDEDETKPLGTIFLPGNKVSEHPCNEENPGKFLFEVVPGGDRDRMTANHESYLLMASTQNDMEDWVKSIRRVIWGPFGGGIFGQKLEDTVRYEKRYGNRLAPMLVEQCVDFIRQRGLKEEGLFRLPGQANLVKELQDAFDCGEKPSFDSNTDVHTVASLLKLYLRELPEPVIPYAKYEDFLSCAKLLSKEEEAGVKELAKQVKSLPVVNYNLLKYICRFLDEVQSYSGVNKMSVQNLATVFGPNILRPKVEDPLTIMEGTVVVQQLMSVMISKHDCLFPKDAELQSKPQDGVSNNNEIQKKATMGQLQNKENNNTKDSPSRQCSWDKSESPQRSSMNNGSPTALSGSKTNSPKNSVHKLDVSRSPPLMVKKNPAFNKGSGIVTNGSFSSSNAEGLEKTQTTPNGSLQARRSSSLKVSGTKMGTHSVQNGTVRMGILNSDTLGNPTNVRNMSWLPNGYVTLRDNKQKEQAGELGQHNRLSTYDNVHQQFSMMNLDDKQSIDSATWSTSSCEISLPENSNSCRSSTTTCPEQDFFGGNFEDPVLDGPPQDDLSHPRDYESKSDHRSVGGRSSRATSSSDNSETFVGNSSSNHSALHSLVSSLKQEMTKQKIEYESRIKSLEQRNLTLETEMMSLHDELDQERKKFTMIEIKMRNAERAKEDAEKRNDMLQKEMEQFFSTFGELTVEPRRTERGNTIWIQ
substance,measurement,value
"Filamin-A (Homo sapiens), P21333 M2474E",effect of a mutation on the interaction,disrupting interaction

# Reference: IntAct's records for PubMed 21926999
